Data as given in patent US8357523B2, “Beta-glucosidase variant enzymes and related polynucleotides” (Codexis, Inc., priority 2009, dated 2013).

Columns and labels:
[1] = Activity profile at different temperatures and pH using cellobiose (10 g/L) as substrate; format: biochemical
Description: β-glucosidase activity was also determined using a cellobiose assay, which used cellobiose as substrate. In a total volume of 100 μL, 25 μL clear media supernatant containing CelA enzyme was added to 10 g/L cellobiose (Fluka Cat. No. 22150, Sigma-Aldrich, Inc., St. Louis, Mo.) in 100 mM sodium phosphate buffer (pH 6-7) or sodium acetate buffer (pH 5-5.5). The reaction was incubated at 45-70° C. for an appropriate time (25 minutes to overnight depending on the enzyme concentration) while shaking. Glucose production was determined using an enzymatic glucose assay (K-GLUC, Megazyme, Ireland). 10 μl of each reaction was added to 190 μl GOPOD reagent (supplied as part of the K-GLUC assay kit). The reaction was incubated at 45° C. for 20 minutes and the absorbance of the solution was measured at 510 nm. The GOPOD reagent contains 50 mM Potassium phosphate buffer pH7.4, 0.011M p-hydroxybenzoic acid, 0.008% w/v sodium azide, glucose oxidase (>12,000 U/L), peroxidase (>650 U/L) and 80 mg/L 4-aminoantipyrine. The glucose oxidase enzyme in the reagent reacts with any glucose present in the sample and produces hydrogen peroxide which then reacts with the 4-aminoantipyrine to produce a quinoneimine dye in quantities proportionate with the amount of glucose present and can be measured spectrophotometrically at 510 nm. Detectable β-glucosidase activity was observed under high throughput screening conditions (i.e., pH 7, 50° C.).
The native CelA activity profile was investigated at different temperatures (40-55° C.) and pH (5.0-8.0) using cellobiose (10 g/L) as a substrate. The experimental and analytical procedures are described in Example 5.
The activity profiles for Variant Nos. 264, 366, 391, 463, and 529 were determined at different temperatures and pH using cellobiose (10 g/L) as a substrate. The experimental and analytical procedures are described in Example 5, incubating the variant with cellobiose at temperatures in the range of 45-80. The results are depicted in FIGS. 7-11. […] The temperature and pH profile for this variant is depicted in FIG. 7. […] The temperature and pH profile for this variant is depicted in FIG. 8. […] The temperature and pH profile for this variant is depicted in FIG. 9. […] (with the pH 6 optimum determined by extrapolation). The temperature and pH profile for this variant is depicted in FIG. 10. […] The temperature and pH profile for this variant is depicted in FIG. 11.

[2] = Enzyme stability: residual activity on pNPG after pre-incubation at high temperature and low pH; format: biochemical; details: residual activity on pNPG at pH 7, 30° C.
Description: Residual activity is determined by exposing the enzyme to stress conditions of elevated temperature for a period of time and then determining the β-glucosidase activity. The β-glucosidase activity of the enzyme exposed to stress conditions (“a”) is compared to that of a control in which the enzyme is not exposed to the stress conditions (“b”), and residual activity is equal to the ratio a/b. Exemplary conditions for determining thermostability are provided in Examples 9 and 13. In one embodiment the enzymes are exposed to stress conditions of 50° C. at pH 5.5 or 55° C. at pH 5.0 or 55° C. at pH 5.5, or 65° C. at pH 5.0 for about 1 hour, and assayed at 30° C., pH 7, for about 0.1 hour.
A colorimetric pNPG (p-nitrophenyl-(β-D-glucopyranoside)-based assay was used for measuring β-glucosidase activity. In a total volume of 100 μL, 20 μL clear media supernatant containing β-glucosidase enzyme was added to 4 mM pNPG (Sigma-Aldrich, Inc. St. Louis, Mo.) solution in 50 mM sodium phosphate buffer at pH6.5. The reactions were incubated at pH 6.5, 45° C. for 1 hour. The reaction mixture was quenched with 100 μL of 1M sodium carbonate pH 11 solution. The absorbance of the solution was measured at 405 nm to determine the conversion of pNPG to p-nitrophenol. The release of p-nitrophenol (ε=17,700 M−1 cm−1) was measured at 405 nm to calculate β-glucosidase activity. Detectable β-glucosidase activity was observed under high throughput screening conditions (pH 7, 50° C.).
Four CelA variants and wildtype CelA were characterized to determine their stabilities at high temperature (55° C.) and low pH (pH5.5) using the method of Example 5A. The samples containing various CelA variant enzymes were pre-incubated at pH 5.5, 55° C. for 0-6 hrs. The residual enzyme activity after the thermal challenge was measured using pNPG as substrate at pH 7, 30° C. for 1 hr. […] The mutations listed in the table are indicated relative to SEQ ID NO: 4, the wildtype CelA. These sequences included residues GTS prior to the N-terminus of SEQ ID NO: 4 (prepared as described in Example 1). […]

B1: Variant No. 264 (protein)
chain: SAAIAQEGAAPAAMLHPEKWPRPATQRLIDPAVEKRVDALLKQLSVEEKVGQVIQGDIGTITPEDLRKYPLGSILAGGDSGPNGDDRAPPKEWLDLADAFYRVSLEKRPGHTPIPVLFGIDAVHGHGNIGSATIFPHNIALGMTRDPELLRRIGEVTAEEMAATGIDWTFAPALSVVRDDRWGRTYEGFSEDPEIVASYSAAIVEGVQGKYGSKDFMAPGRAVACAKHFLADGGTDQGRDQGDARISEDELIRIHNAGYPPAIDAGVLTVMASFSSWQGIKHHGHKQLLTDVLKGQMGFNGFIVGDWNAHDQVPGCTKFNCPTSLIAGLDMYMAADSWKQLYENTLAQVKDGTIPMARLDDAVRRILRVKVLAGLFEKPAPKDRPGLPGLETLGSPEHRAVGREAVRKSLVLLKNDKGTLPLSPKARVLVAGDGADNIGKQSGGWTISWQGTGNRNDEFPGATSILGGIRDAVADAGGSVEFDVAGQYKTKPDVAIVVFGEEPYAEFRGDVETLEYQPDQKQDLTLLKKLKDQGIPVVAVFLSGRPMWVNPELNASDAFVAAWLPGTEGGGVADVLFTDKAGKVQHDFAGKLSYSWPRTAAQTTVNRGDADYNPLFAYGYGLTYKDKSKVGTLPEESGVPAEARQN
pH of optimum activity [1]: 6 pH
temperature of optimum activity [1]: 58 °C
% residual activity after 10 mins @ pH 5.5, 55° C. ([2]; pre-incubation 10 mins at pH 5.5, 55° C., 1 hr): 95%
% residual activity after 1 hour @ pH 5.5, 55° C. ([2]; pre-incubation 1 hour at pH 5.5, 55° C.): 78%
% residual activity after 6 hours @ pH 5.5, 55° C. ([2]; pre-incubation 6 hours at pH 5.5, 55° C., 1 hr): 11%
